# Laboratory results: the supplement of paper PMC12764529
# ± gives the half width of the 95% confidence interval.
# Columns and labels:
# [1] = folding stability dG unfold (combined trypsin and chymotrypsin); higher = more stable
# Method in brief: (§1)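 Designed mini-proteins (under 80 residues, no cysteine) in a PA-tagged cDNA display construct were digested with trypsin and chymotrypsin. Each protease was used at 11 concentrations (threefold dilutions) plus a no-protease condition, followed by sequencing. K50 was inferred by Bayesian fitting of sequencing counts, and unfolding free energy was derived against a sequence-predicted unfolded-state K50 and a shared folded-state K50, per protease or combined. Only designs with AlphaFold2 dimer inter-PAE above 15 were kept.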
# [2] = folding stability dG unfold from chymotrypsin proteolysis; higher = more stable
# Method in brief: as §1
# [3] = folding stability dG unfold from trypsin proteolysis; higher = more stable
# Method in brief: as §1
Sequence,folding stability dG unfold [1],folding stability dG unfold [2],folding stability dG unfold [3]
SAGMVIPYKELKKNLSEEELIELAKEAAEKLGYKPKKIEIKETPEPDKYIVIDVIDENGNKHPIVFPSKSAG [r5_745_TrMRF],0.542 ± 0.088 kcal/mol,0.374 ± 0.17 kcal/mol,0.69 ± 0.036 kcal/mol
SAGGSAGGSAGMAIGLEEILARLDPERIISVEVDEENPLVTVKLRPPSGETKTITFKLSLSAGGSAGGSAGG [r17_374_JUSTAS],1.06 ± 0.07 kcal/mol,0.669 ± 0.11 kcal/mol,1.21 ± 0.03 kcal/mol
SAPEVFRFTIPRYRDDYEFDGDGYPVLKERKPVAPLEVEAVVFEDGTVRVRVGDEVREFPLGVSPEELFSAG [r14_909_TrMRF],0.566 ± 0.1 kcal/mol,0.355 ± 0.18 kcal/mol,0.601 ± 0.22 kcal/mol
SAGGSAGGGMTAEELAAKAIEEALKAGETVTVEIEVTNPNGETFTLELTLVVVDPDDPEALEALSAGGSAGG [r6_534_TrROS_Hall],1.49 ± 0.05 kcal/mol,1.29 ± 0.014 kcal/mol,1.64 ± 0.057 kcal/mol
SAGGSAGGKKNNKPKPILVKIEIINKNGKKKVFTKEFKSLEEAKKFIEKALPKGYSAKIEIIPGSAGGSAGG [r6_289_TrMRF],3.18 ± 0.29 kcal/mol,3.36 ± 0.062 kcal/mol,2.25 ± 0.2 kcal/mol
SAKVITIKLKIKVKTEEELEKAKELADELAKKLAEEGKKVKVEVVKIEVEENENGEKTVTIEIKIYLEPSAG [r14_48_TrROS_Hall],3.6 ± 0.35 kcal/mol,3.72 ± 0.21 kcal/mol,3.36 ± 0.22 kcal/mol
SGMPPVSFANLELVAVSPDGTVTVVRAELTGPDGERYVWTGSLSELLKRLEEEDLTLDNFKEGGLIVAVDSA [r9_1078_TrMRF],3.44 ± 0.041 kcal/mol,3.75 ± 0.039 kcal/mol,2.77 ± 0.06 kcal/mol
SAGGSAGGSAKMVIVNITLKNKDGKEFTISIEADPSVIKNIIKKLFNAKINKIEIYPLSEALSAGGSAGGSA [r18_107_TrMRF],2.28 ± 0.15 kcal/mol,2.21 ± 0.08 kcal/mol,2.49 ± 0.11 kcal/mol
SAGGMGFEKVGTFKLEDDVIVEIYKGPEKKLVAKVYFPKTGKVIEDPGHPDESIEELIERIKAIAEEESAGG [r13_624_TrMRF],4.2 ± 0.28 kcal/mol,4.32 ± 0.07 kcal/mol,4.48 ± 0.39 kcal/mol
SAGGGPPPVEVTTSTDPSTGKVTTTVTAGPAGTRFTSSSPNGSSTTTTTVTYVGDTWEVSTSSTSSSSAGGS [r16_631_JUSTAS],1.31 ± 0.1 kcal/mol,1.37 ± 0.11 kcal/mol,1.21 ± 0.061 kcal/mol
SMSFEAELTLPDQPVTVPVTLDPATGTATVTVTTTHPDRDETTTTTVTVSDPSELLALLRELPPGATLRLSA [r9_713_JUSTAS],0.771 ± 0.068 kcal/mol,0.974 ± 0.059 kcal/mol,0.307 ± 0.079 kcal/mol
SAGGSAGGSAGAEELAKKLKELGFEVKVEKNEDGSLTLTVKFKPKPKPKKVVTKDGKEVKSAGGSAGGSAGG [r17_503_TrROS_Hall],1.61 ± 0.26 kcal/mol,1.9 ± 0.11 kcal/mol,0.579 ± 0.076 kcal/mol
SAGGSAGGSAGGKIYYLDKDLFVIDLPDPKTGKPIKIAIGGDPNRPDEILKLAKELAESSAGGSAGGSAGGS [r10_379_TrMRF],-0.0301 ± 0.2 kcal/mol,-0.398 ± 0.26 kcal/mol,0.0383 ± 0.039 kcal/mol
SDKVVIHFYPGMPVSNIVERVADNPDMTIEIVMPPGMKPSWYNYIRKALRDANIPKDQKVEIEWVPYDDMSA [r9_670_TrROS],3.59 ± 0.081 kcal/mol,3.92 ± 0.042 kcal/mol,3.11 ± 0.12 kcal/mol
SAGGSAGGWIPPEMARNIAKTLRDKGWPVEDIEVEREPNGWVTVDVDIQYPDGKKRKYPIQIPYSAGGSAGG [r6_762_TrROS],0.0547 ± 0.17 kcal/mol,0.226 ± 0.23 kcal/mol,-0.439 ± 0.22 kcal/mol
SAGGVNPTDPAQATTTETTPSLVTLPNGEKVLVTTTTTTTPDGSTTTTTTTTNAATGATTSTTTTTASAGGS [r8_252_JUSTAS],2.19 ± 0.14 kcal/mol,2.39 ± 0.14 kcal/mol,1.97 ± 0.14 kcal/mol
SAGGSAGGSSSMVVIEKEFPDLTPEEVEKLAKEIEEKNPELGKVEVKFKPKKKPKPPLTPEAKKSAGGSAGG [r6_825_JUSTAS],0.878 ± 0.11 kcal/mol,1.29 ± 0.036 kcal/mol,-0.672 ± 0.21 kcal/mol
SAGMTITVPGNVTVNVVITAYKFDENGNLIGPYTLVKPITVPENSTITIDLPNDEPNVVIIEIKAIPASAGG [r19_295_TrMRF],4.42 ± 0.18 kcal/mol,4.81 ± 0.073 kcal/mol,3.16 ± 0.15 kcal/mol
SAGGSAGGSKEIVIKVNVSEEDLKEKAEELLKKLEELLPPGAKIKKIEIEYDEETGELVIKIESAGGSAGGS [r12_308_TrROS_Hall],2.26 ± 0.18 kcal/mol,1.94 ± 0.15 kcal/mol,2.49 ± 0.22 kcal/mol
SAGGSAGGMLPAEELADYLEKNPGIEIEDIEPPDPGYITVKIKFPRPDPNGEKHKVEVTIQFPVSAGGSAGG [r6_154_TrROS],1.4 ± 0.32 kcal/mol,1 ± 0.075 kcal/mol,1.91 ± 0.24 kcal/mol
SAGKPRPVEIDFPMPPGFPNMPPEEMANMIARELDENGLKIEPKNMNPGEPYVRYTVEVNGKPILEITFSAG [r5_80_TrROS],1.14 ± 0.12 kcal/mol,1.51 ± 0.12 kcal/mol,0.762 ± 0.081 kcal/mol

Sequence,folding stability dG unfold [1],folding stability dG unfold [2],folding stability dG unfold [3]
SAGGSAGGSAKKVVTVPEDATLEEIEELLKSGEKVTVVIHNKETGKTETLEFDSLEELKAASAGGSAGGSAG [r3_362_TrROS_Hall],1.53 ± 0.17 kcal/mol,1.91 ± 0.16 kcal/mol,0.601 ± 0.072 kcal/mol
SAGGYLVRIEMPNGREHEYPVKDIDDAASRFRDHLGFPPNMKLKVEVYDPKDGEKKERTLTIPMPKPKSAGG [r13_145_TrROS],0.378 ± 0.069 kcal/mol,0.504 ± 0.12 kcal/mol,0.0313 ± 0.092 kcal/mol
SAGGSAGSFVNLGPEESEGVIVVTYYNEDGTTTTATYTYFPSPKTVSSNGPVTVPPNYKLSVSPLLSAGGSA [r15_198_JUSTAS],0.818 ± 0.067 kcal/mol,1.13 ± 0.054 kcal/mol,0.165 ± 0.051 kcal/mol
SAGGSAGGSAGMELKIKVTLTPPGAPVPLTLELEVESEEEARERLEKEYPDREIELEVLESAGGSAGGSAGG [r17_428_JUSTAS],0.143 ± 0.093 kcal/mol,0.354 ± 0.088 kcal/mol,-0.534 ± 0.072 kcal/mol
SAIKIKNVEFNDNGWMEIEIPYPENGREVTIRMDPNGNIQVEEYPPNDGKPKRKTIPGMSIEEILEELLSAG [r14_760_TrROS],0.55 ± 0.33 kcal/mol,0.25 ± 0.13 kcal/mol,1.08 ± 0.24 kcal/mol
SMVELKITVKTPEELKKLEEAFKELGVEEVTIERKEDGTVTITVTFKESEEELEERVREALEELGFEVEPSA [r9_1003_TrROS_Hall],3.18 ± 0.22 kcal/mol,2.82 ± 0.23 kcal/mol,3.33 ± 0.18 kcal/mol
SMYTADFILPDEVLKTVPLEGKSVEEALEKVKEIVKQLPPNTPLLVKISYTEVDPKTGTTRTGTITVPLKSA [r9_245_JUSTAS],2.2 ± 0.19 kcal/mol,2.39 ± 0.044 kcal/mol,2.06 ± 0.065 kcal/mol
SDETVELPTVYTLYFGKDGTPRYYITVTLGDGPVAMELPEVSPDVKDGDVVPVKVPSSVVTSYSVSSAPASA [r9_769_JUSTAS],0.808 ± 0.059 kcal/mol,0.777 ± 0.096 kcal/mol,0.671 ± 0.071 kcal/mol
SAGGEWRKITVPIKYRFPPGESIDSIANELANLPGLKVEVNVEYEKDPDGRYYMEIPVEIEIPPGAPISAGG [r13_590_TrROS],0.576 ± 0.12 kcal/mol,0.669 ± 0.16 kcal/mol,0.341 ± 0.074 kcal/mol
SAGGSAGGSAGGNIKVDDVHHNPNNYRQVKIDLPGGKPIKIWMSMDDPNNVKEIAKEIFSAGGSAGGSAGGS [r10_472_TrROS],-0.22 ± 0.1 kcal/mol,-0.414 ± 0.18 kcal/mol,-0.191 ± 0.048 kcal/mol
SAGGSAGGSMKLTLESASPDPNKVTYTIKFPGGETLTEELPEEEIEKRSKELGWNIKLFGPTKSAGGSAGGS [r12_676_JUSTAS],-0.0928 ± 0.28 kcal/mol,0.098 ± 0.42 kcal/mol,-0.0326 ± 0.29 kcal/mol
SVPVAPDKTYEIENIEEGNYLIKGLTLTPLPDGSVKIDKDIEPIEIPPKPPPLKYDPVKGGFIKPNDPLLSA [r9_603_JUSTAS],0.434 ± 0.14 kcal/mol,0.592 ± 0.19 kcal/mol,0.319 ± 0.08 kcal/mol
SAGGSAGGSDPAKKPVYLLATVEVEIGEVVDPNTGEPSHEHRVTVRFLITIDPDGNISISSLTSAGGSAGGS [r12_438_TrMRF],3.15 ± 0.21 kcal/mol,3.25 ± 0.18 kcal/mol,2.9 ± 0.2 kcal/mol
SAGGEWHEISIKFPNPEEIEEALREAFPPGMDVDPDVEPNPNGWEVEIEVPRNNPDRVQNAIKEALDSAGGS [r16_43_TrROS],0.492 ± 0.11 kcal/mol,0.469 ± 0.031 kcal/mol,0.452 ± 0.035 kcal/mol
SAGGSAGGSAGMKKVLIIGGPKEELAKELKEKSPDIEVEFLDPSEDLEEYKKKFDIVIIESAGGSAGGSAGG [r17_225_JUSTAS],0.0867 ± 0.084 kcal/mol,0.255 ± 0.072 kcal/mol,-0.387 ± 0.09 kcal/mol
SAGGMPEVKIKVEITEIKVDKETGKTVTIRIKSVEITTADGRKYRVEKEIRIRPDGSIEVKVKVEELPSAGG [r13_917_TrROS_Hall],3.75 ± 0.12 kcal/mol,4.21 ± 0.14 kcal/mol,2.75 ± 0.089 kcal/mol
SAGGPPNYRIKIEYYPPNGMITVELPFDSPDELLDEIRELPGLPVEPDNDGTIIIMFPNHMIKIDIWKSAGG [r13_143_TrROS],2.51 ± 0.11 kcal/mol,2.72 ± 0.056 kcal/mol,2.18 ± 0.067 kcal/mol
SAGGSAGGSAGGMSSTVSLSTSFLPNGEKVVTTTTTFTDSSTTTTTTTTTTVALPPPSVVSAGGSAGGSAGG [r7_495_JUSTAS],1.23 ± 0.14 kcal/mol,0.984 ± 0.093 kcal/mol,1.14 ± 0.075 kcal/mol
SMYYYGKFTFTNPTGGPTIGDVYIITKSKEEAEALAKEEASKKNVKVEIEIKEIPESEYENPEKVKELLSSA [r9_864_JUSTAS],0.788 ± 0.37 kcal/mol,1.02 ± 0.19 kcal/mol,0.285 ± 0.2 kcal/mol
SAGGSAMTVVKVTLKSPSGTTTVTLPAEEWERFLAAPEVSKTWTLTEVVEEEEPPPELDPEAVELGSAGGSA [r15_460_JUSTAS],0.864 ± 0.3 kcal/mol,1.12 ± 0.15 kcal/mol,0.626 ± 0.11 kcal/mol
SAGGKTVVIEAESLEEALAAIEALPPDVKKVVIFNKETGVLVEVTVDPKTGEIKEIKVYKIDPEKGKLSAGG [r13_945_TrROS_Hall],2.54 ± 0.12 kcal/mol,2.861 ± 0.026 kcal/mol,1.22 ± 0.09 kcal/mol
